Residue numbers refer to the chain shown, from its start. Numbers in names are those of the source.
T1: ATGL-CFP (adipose triglyceride lipase fused to CFP) (UniProt Q8BJ56 1-486)
T1 construct: Adipose triglyceride lipase (ATGL); source: HeLa cells, transiently transfected (Lipofectamine 3000), in live cells
T1 sequence (looked up): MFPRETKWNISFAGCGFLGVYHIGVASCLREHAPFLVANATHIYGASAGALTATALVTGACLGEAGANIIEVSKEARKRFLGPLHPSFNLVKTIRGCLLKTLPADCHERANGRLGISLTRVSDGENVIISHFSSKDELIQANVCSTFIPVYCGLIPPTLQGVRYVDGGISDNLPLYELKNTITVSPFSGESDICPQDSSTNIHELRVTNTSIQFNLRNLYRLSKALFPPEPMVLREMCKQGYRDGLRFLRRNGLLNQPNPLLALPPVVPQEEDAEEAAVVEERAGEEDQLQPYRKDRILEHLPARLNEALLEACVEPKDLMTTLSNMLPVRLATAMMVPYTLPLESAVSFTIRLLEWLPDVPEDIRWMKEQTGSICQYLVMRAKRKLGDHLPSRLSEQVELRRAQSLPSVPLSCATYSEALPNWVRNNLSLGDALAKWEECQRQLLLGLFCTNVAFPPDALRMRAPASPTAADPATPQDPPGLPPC

T2: ABHD5-CFP (α-β hydrolase domain-containing 5 fused to CFP) (UniProt Q9DBL9 1-351)
T2 construct: α-β hydrolase domain-containing 5 (ABHD5, also known as CGI-58); also called CGI-58; source: HeLa cells, transiently transfected (Lipofectamine 3000), in live cells
T2 sequence (looked up): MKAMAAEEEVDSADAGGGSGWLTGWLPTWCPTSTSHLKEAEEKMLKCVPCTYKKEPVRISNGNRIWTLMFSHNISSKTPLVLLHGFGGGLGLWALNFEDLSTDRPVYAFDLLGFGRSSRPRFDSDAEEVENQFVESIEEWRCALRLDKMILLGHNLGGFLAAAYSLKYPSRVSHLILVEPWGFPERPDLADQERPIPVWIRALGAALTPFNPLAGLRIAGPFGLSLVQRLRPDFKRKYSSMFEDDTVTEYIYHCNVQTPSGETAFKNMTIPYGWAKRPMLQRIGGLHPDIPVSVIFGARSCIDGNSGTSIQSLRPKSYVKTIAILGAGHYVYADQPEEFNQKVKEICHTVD

B1: PLIN5-YFP (perilipin 5 fused to YFP) (natural protein, mouse, UniProt Q8BVZ1 1-463, looked up)
chain: MDQRGEDTTLAPHSRMSGDQTAQDPGSSLGELDQQNVVNRVVALPLVKATCTAVSSAYNSAKDRHPLLGSACRLAEHCVCSVTTCALDHAQPLLEHLQPQLATVNDLACRGLDKLEEKLPFLQQPSDMVVTSAKDTVAKSVTGMVDLAQRGRRWSGELRRSMSQAMDMVLGKSEKLVDRFLPMTEAELAVLAAEAEGPEVGTVEEQRQQQGYFVRLGSLSARLRHLAYEHSLGKLRQSKHRTQEMLAQLQETLELIQHMQRGASPSPTFHPPKTQELWGSWSPCLENGRSHSEVELETLALSRSLTLELQNAVDALAGCVRGLPPSAQAKVAEVQRSVDALQATFADAHCLGDVAPTALAEGRGSVARAHACVDEFLDLVLRAMPLPWLVGPFAPILVEQSEPLINLATCVDEVVGDPDPRWAHMDWPAQKRAWEAESADPGGQEAEPPRGQGKHTMMPELDF
notes: Perilipin 5 (PLIN5), murine; also called wild-type PLIN5; source: HeLa cells, transiently transfected (Lipofectamine 3000), in live cells
B2: PLIN5 S155A-YFP (natural protein, mouse, UniProt Q8BVZ1 1-463, looked up)
chain: B1 chain with S155A
notes: Perilipin 5 (PLIN5), murine, with the phosphorylation-defective S155A mutation; also called phospho-mutant S155A; source: HeLa cells, transiently transfected (Lipofectamine 3000), in live cells

What was measured:
[1] = biological target: T1, ATGL-CFP (adipose triglyceride lipase …); assay: FRET or BRET; phasor-based FLIM-FRET in live HeLa cells transiently co-transfected with a CFP donor (ATGL-CFP or ABHD5-CFP) and a YFP acceptor (PLIN5-YFP or PLIN5 S155A-YFP); 37°C, 5% CO2; before and after 20 μM forskolin; details: partners not purified
[2] = biological target: T2, ABHD5-CFP (α-β hydrolase …); assay: as above; details: partners not purified

Row | Binder | FRET efficiency [1] | FRET efficiency [2]
1 | B1 | 20% | 25%
2 | B2 | 20% | 25%

From paper PMC7900760, “Perilipin 5 S155 phosphorylation by PKA is required for the control of hepatic lipid metabolism and glycemic control” (Journal of Lipid Research, 2021)
